From patent EP4714976A1 (Sunshine Lake Pharma Co., Ltd., dated 2026)

B1: 3E7 scFv-Fc (Fc fusion)
chain: QVQLQQSGAELVKPGASVKMSCKASGYTFTIYNIHWVRQTPGQGLEWIGLIYPDNGDTSYNQKFKAKATLTADKSSSTAYMQLSSLTSEDSAVYYCARGGFDYWGQGTTLTVSSGGGGSGGGGSGGGGSNIVMTQSQKFMSTSVGDRVSVTCKASQNVGTNVAWYQQKPGQSPKALIYSASYRYSGVPDRFTGSGSGTDFTLTISGVQAEDLADYYCQQHYNTPYTFGGGTKLEIKESKYGPPCPPCPAPEAAGGPSVFLFPPKPKDTLMISRTPEVTCVVVDVSQEDPEVQFNWYVDGVEVHNAKTKPREEQFNSTYRVVSVLTVLHQDWLNGKEYKCKVSNKGLPSSIEKTISKAKGQPREPQVYTLPPSQEEMTKNQVSLTCLVKGFYPSDIAVEWESNGQPENNYKTTPPVLDSDGSFFLYSKLTVDKSRWQEGNVFSCSVMHEALHNHYTQKSLSLSLG
notes: scFv-Fc dimer
B2: 3F11 scFv-Fc (Fc fusion)
chain: QVQLQQSGAELVKPGASVKMSCKASGYTFAPYNIHWVRQTPGQGLEWIGLIYPDNGDTSYNQKFKAKATLTADKSSSTAYMQLSSLTSEDSAVYYCARGGFDYWGQGTSLTVSSGGGGSGGGGSGGGGSDIVMTQSQKFMSTSVGDRVSVTCKASQNVGTNVAWYQQKPGQSPKALIYSASYRYSGVPDRFTGSGSGTDFTLTISNVQSEDLAEYFCQQHYSTPFTFGSGTKLEIKESKYGPPCPPCPAPEAAGGPSVFLFPPKPKDTLMISRTPEVTCVVVDVSQEDPEVQFNWYVDGVEVHNAKTKPREEQFNSTYRVVSVLTVLHQDWLNGKEYKCKVSNKGLPSSIEKTISKAKGQPREPQVYTLPPSQEEMTKNQVSLTCLVKGFYPSDIAVEWESNGQPENNYKTTPPVLDSDGSFFLYSKLTVDKSRWQEGNVFSCSVMHEALHNHYTQKSLSLSLG
notes: scFv-Fc dimer
B3: 3H6 scFv-Fc (Fc fusion)
chain: QVQLQQSGAELVKPGASVKMSCKASGYTFSFYNIHWVRQTPGQGLEWIGLIYPDNGDTSYNQKFKAKATLTADKSSSTAYMQLSSLTSEDSAVYYCARGGFDYWGQGTTLTVSSGGGGSGGGGSGGGGSDIQMTQSPASLSASVGETVTITCRASENIYSYLAWYQQKQGKSPQLLVYNAKTLAEGVPSRFSGSGSGTQFSLKINSLQPEDFGSYYCQHHYGTPYTFGGGTKLEMKESKYGPPCPPCPAPEAAGGPSVFLFPPKPKDTLMISRTPEVTCVVVDVSQEDPEVQFNWYVDGVEVHNAKTKPREEQFNSTYRVVSVLTVLHQDWLNGKEYKCKVSNKGLPSSIEKTISKAKGQPREPQVYTLPPSQEEMTKNQVSLTCLVKGFYPSDIAVEWESNGQPENNYKTTPPVLDSDGSFFLYSKLTVDKSRWQEGNVFSCSVMHEALHNHYTQKSLSLSLG
notes: scFv-Fc dimer
B4: 3C7 scFv-Fc (Fc fusion)
chain: EIQLQQSGAELVKPGASVKMSCKASGYIFRNYYIHWVKRTPGQGLEWIGAIYPDNGDTSYNQRFKVKATLTADTSSSTAYMQLSSLTSEDSAVYYCARAFTYWGQGTTLTVSSGGGGSGGGGSGGGGSDIQMIQSPASLSASVGETVTITCGASENIYGALNWYQRKQGKSPQLLIYGATNLADGMSSRFSGSGSGRQYSLKISSLHPDDVATYYCQNVLSTPYTFGGGTKLEIKESKYGPPCPPCPAPEAAGGPSVFLFPPKPKDTLMISRTPEVTCVVVDVSQEDPEVQFNWYVDGVEVHNAKTKPREEQFNSTYRVVSVLTVLHQDWLNGKEYKCKVSNKGLPSSIEKTISKAKGQPREPQVYTLPPSQEEMTKNQVSLTCLVKGFYPSDIAVEWESNGQPENNYKTTPPVLDSDGSFFLYSKLTVDKSRWQEGNVFSCSVMHEALHNHYTQKSLSLSLG
notes: scFv-Fc dimer
B5: 2B1 scFv-Fc (Fc fusion)
chain: EVQLQQSGAELVKPGASVKMSCKASGYTFASYNLHWVKQTPGQGLEWIGLIYPENGDTSYNQKFKGKATLTADKSSSTAYIQLSSLTSEDSAVYFCARGGFDYWGQGTSLTVSSGGGGSGGGGSGGGGSDIQMIQSPASLSVSVGETVTITCRASENIYSNLAWYQQKQGKSPQLLVYNAKTLADGVPSRFSGSGSGTQYSLKINSLQPEDFGSYYCQHFWSTPYTFGGGTKLEIKESKYGPPCPPCPAPEAAGGPSVFLFPPKPKDTLMISRTPEVTCVVVDVSQEDPEVQFNWYVDGVEVHNAKTKPREEQFNSTYRVVSVLTVLHQDWLNGKEYKCKVSNKGLPSSIEKTISKAKGQPREPQVYTLPPSQEEMTKNQVSLTCLVKGFYPSDIAVEWESNGQPENNYKTTPPVLDSDGSFFLYSKLTVDKSRWQEGNVFSCSVMHEALHNHYTQKSLSLSLG
notes: scFv-Fc dimer
B6: 3E2 scFv-Fc (Fc fusion)
chain: EIQLQQSGAELVKPGASVKMSCKASGYTFSFYNMHWVKRTPGQGLEWIGLIYPDNGDTSYNQKFKGKATLTADTSSSTAYMQLSSLTSEDSAVYYCARGGLDYWGQGTSLTVSSGGGGSGGGGSGGGGSNIVMTQSQKFMSTSVGDRVSVTCKASQNVGTNVAWYQQKPGQSPKALIYSASYRYTGVPDRFTGSGSGTDFTFTISSVQAEDLAVYYCQQHYSTPYTFGGGTKLEIKESKYGPPCPPCPAPEAAGGPSVFLFPPKPKDTLMISRTPEVTCVVVDVSQEDPEVQFNWYVDGVEVHNAKTKPREEQFNSTYRVVSVLTVLHQDWLNGKEYKCKVSNKGLPSSIEKTISKAKGQPREPQVYTLPPSQEEMTKNQVSLTCLVKGFYPSDIAVEWESNGQPENNYKTTPPVLDSDGSFFLYSKLTVDKSRWQEGNVFSCSVMHEALHNHYTQKSLSLSLG
notes: scFv-Fc dimer
B7: 3E1 scFv-Fc (Fc fusion)
chain: QVQLQQPGAEVVKPGASVKMSCKASGYTFTDYYIHWVKQTPGQGLEWIGAIYPDNGDTSYNQKFKVKATLTADKSSSTAYMQLSSLTSEDSAVYYCARAFTYWGQGTLVTVSAGGGGSGGGGSGGGGSDILITQSPASLSASVGETVTITCGASENIYGALNWYQRKQGKSPQLLIYGATNLADGMSSRFSGSGSGRQYSLKISSLHPDDVATYYCQNVLSTPYTFGGGTKLEIKESKYGPPCPPCPAPEAAGGPSVFLFPPKPKDTLMISRTPEVTCVVVDVSQEDPEVQFNWYVDGVEVHNAKTKPREEQFNSTYRVVSVLTVLHQDWLNGKEYKCKVSNKGLPSSIEKTISKAKGQPREPQVYTLPPSQEEMTKNQVSLTCLVKGFYPSDIAVEWESNGQPENNYKTTPPVLDSDGSFFLYSKLTVDKSRWQEGNVFSCSVMHEALHNHYTQKSLSLSLG
notes: scFv-Fc dimer
B8: 3A12 scFv-Fc (Fc fusion)
chain: EVQLQQSGAELVKPGASVKMSCKASGYTFSFYNVHWVRQTPGQGLEWIGLIYPDNGDTSYNQKFKAKATLTADKSSSAAYMQLSSLTSEDSAVYYCARGGFDYWGQGTSLTVSSGGGGSGGGGSGGGGSDIVMTQSHKFMSTSVGDRVNITCKASQDVSTAVAWYQQKPGQSPKLLIYSASYRYSGVPDRFTGSGSGTDFTFTISSVQAEDLAVYYCQQHYSTPYTFGGGTKLEMKESKYGPPCPPCPAPEAAGGPSVFLFPPKPKDTLMISRTPEVTCVVVDVSQEDPEVQFNWYVDGVEVHNAKTKPREEQFNSTYRVVSVLTVLHQDWLNGKEYKCKVSNKGLPSSIEKTISKAKGQPREPQVYTLPPSQEEMTKNQVSLTCLVKGFYPSDIAVEWESNGQPENNYKTTPPVLDSDGSFFLYSKLTVDKSRWQEGNVFSCSVMHEALHNHYTQKSLSLSLG
notes: scFv-Fc dimer

Legend:
FGFR2c (acro) [1] = target: T1, FGFR2c (acro) (UniProt P21802 22-377); experiment: ELISA
T1 sequence (P21802 22-377): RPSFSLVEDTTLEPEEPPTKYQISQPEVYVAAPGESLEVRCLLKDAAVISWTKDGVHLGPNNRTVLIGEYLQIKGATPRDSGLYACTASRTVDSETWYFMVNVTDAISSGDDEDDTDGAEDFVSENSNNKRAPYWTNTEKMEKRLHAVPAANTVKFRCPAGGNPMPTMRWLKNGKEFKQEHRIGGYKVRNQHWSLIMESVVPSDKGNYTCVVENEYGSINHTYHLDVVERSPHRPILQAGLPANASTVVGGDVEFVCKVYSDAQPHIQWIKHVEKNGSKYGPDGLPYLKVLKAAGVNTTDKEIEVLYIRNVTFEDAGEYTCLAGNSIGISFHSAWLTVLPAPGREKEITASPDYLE

FGFR4 (acro) [2] = target: T2, FGFR4 (acro) (UniProt P22455 22-369); experiment: ELISA
T2 sequence (looked up): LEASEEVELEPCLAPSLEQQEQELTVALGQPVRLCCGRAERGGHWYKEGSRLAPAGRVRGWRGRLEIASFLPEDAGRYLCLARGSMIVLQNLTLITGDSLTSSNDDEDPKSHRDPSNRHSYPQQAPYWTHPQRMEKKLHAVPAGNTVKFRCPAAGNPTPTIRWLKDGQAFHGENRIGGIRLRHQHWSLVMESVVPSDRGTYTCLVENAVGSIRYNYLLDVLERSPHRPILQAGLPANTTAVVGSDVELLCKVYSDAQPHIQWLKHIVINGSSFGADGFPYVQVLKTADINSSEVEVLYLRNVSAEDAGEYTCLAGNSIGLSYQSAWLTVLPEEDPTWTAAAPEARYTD

[3] = target: T3, recombinant cynomolgus monkey FGFR2b (cynomolgus monkey); experiment: ELISA, antibody 1ug/mL
T3 construct: extracellular domain; bought; also called cynomolgus macaque FGFR2b

FGFR2c (acro) [4] = target: T1, FGFR2c (acro); experiment: ELISA, antibody 10 µg/mL
FGFR4 (acro) [5] = target: T2, FGFR4 (acro); experiment: ELISA, antibody 10 µg/mL
[6] = target: T4, human FGFR2b (Kaixia Biotechnology, catalog number FGR-HM1BB) (human, UniProt P21802-3 22-378); experiment: BLI, antibody on AHC2 sensor
T4 construct: extracellular domain; bought; also called hFGFR2b; human FGFR2b protein
T4 sequence (P21802 other isoform, or with tags, fused parts or gaps): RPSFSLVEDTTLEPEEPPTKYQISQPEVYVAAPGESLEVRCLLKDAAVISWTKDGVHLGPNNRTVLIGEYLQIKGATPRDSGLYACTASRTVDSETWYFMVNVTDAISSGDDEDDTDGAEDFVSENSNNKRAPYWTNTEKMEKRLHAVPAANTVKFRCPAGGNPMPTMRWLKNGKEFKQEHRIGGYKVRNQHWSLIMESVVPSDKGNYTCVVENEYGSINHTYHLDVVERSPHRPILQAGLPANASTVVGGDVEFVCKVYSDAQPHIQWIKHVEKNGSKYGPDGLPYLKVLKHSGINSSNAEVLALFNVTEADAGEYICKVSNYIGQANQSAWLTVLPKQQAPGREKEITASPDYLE

FGFR2b on KATO III cells = target: T5, FGFR2b on KATO III cells (human, UniProt P21802-3 22-822); experiment: flow cytometry, KATO III cells
T5 construct: whole, on cells; also called KATO III cells that overexpress FGFR2b
T5 sequence (P21802 other isoform, or with tags, fused parts or gaps): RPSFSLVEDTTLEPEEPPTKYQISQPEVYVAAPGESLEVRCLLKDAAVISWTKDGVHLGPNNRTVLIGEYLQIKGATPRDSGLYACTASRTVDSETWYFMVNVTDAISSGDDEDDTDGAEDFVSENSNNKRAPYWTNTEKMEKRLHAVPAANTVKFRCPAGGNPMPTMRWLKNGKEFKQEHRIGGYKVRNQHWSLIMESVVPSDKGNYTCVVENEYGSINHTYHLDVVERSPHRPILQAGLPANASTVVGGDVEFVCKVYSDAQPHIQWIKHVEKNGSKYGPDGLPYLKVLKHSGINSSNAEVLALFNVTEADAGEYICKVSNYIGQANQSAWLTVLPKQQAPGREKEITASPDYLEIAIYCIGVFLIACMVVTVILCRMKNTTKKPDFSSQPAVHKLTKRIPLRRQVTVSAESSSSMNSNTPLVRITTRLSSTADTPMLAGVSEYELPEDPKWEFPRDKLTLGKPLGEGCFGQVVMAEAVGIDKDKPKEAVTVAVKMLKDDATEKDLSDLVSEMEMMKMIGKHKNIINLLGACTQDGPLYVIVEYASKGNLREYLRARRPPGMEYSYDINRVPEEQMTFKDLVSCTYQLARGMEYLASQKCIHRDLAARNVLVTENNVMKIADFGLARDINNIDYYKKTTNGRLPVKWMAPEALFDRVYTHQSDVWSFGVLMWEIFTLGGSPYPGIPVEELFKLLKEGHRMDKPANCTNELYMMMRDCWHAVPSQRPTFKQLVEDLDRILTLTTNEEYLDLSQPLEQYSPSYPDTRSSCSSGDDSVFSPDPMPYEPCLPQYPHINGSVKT

[7] = target: T4, human FGFR2b (Kaixia Biotechnology, …); experiment: ELISA, FGFR2b coated at 1 µg/ml

| Binder | binding result (FGFR2c (acro) [1]) | binding result (FGFR4 (acro) [2]) | OD (450 nm) value [3] | OD (450 nm) value (FGFR2c (acro) [4]) | OD (450 nm) value (FGFR4 (acro) [5]) | Kd [6] | koff [6] | kon [6] | EC50 (FGFR2b on KATO III cells) | EC50 [7] |
| --- | --- | --- | --- | --- | --- | --- | --- | --- | --- | --- |
| B1 | no binding (tested: 10 µg/mL) | no binding (tested: 10 µg/mL) | 3.15 | 0.114 | 0.125 | 4.35 nM | 0.00111 s⁻¹ | 256000 M⁻¹ s⁻¹ | 0.298 µg/mL | 0.0154 µg/mL |
| B2 | no binding (tested: 10 µg/mL) | no binding (tested: 10 µg/mL) | 3.14 | 0.086 | 0.093 | 6.13 nM | 0.00203 s⁻¹ | 331000 M⁻¹ s⁻¹ | 0.164 µg/mL | 0.0156 µg/mL |
| B3 | no binding (tested: 10 µg/mL) | no binding (tested: 10 µg/mL) | 3.35 | 0.093 | 0.157 | 8.41 nM | 0.00166 s⁻¹ | 198000 M⁻¹ s⁻¹ | 0.226 µg/mL | 0.0128 µg/mL |
| B4 | no binding (tested: 10 µg/mL) | no binding (tested: 10 µg/mL) | 3.19 | 0.091 | 0.133 | 3.99 nM | 0.00114 s⁻¹ | 287000 M⁻¹ s⁻¹ | 0.2 µg/mL | 0.0166 µg/mL |
| B5 | no binding (tested: 10 µg/mL) | no binding (tested: 10 µg/mL) | 3 | 0.098 | 0.103 | 6.67 nM | 0.00179 s⁻¹ | 268000 M⁻¹ s⁻¹ | 0.195 µg/mL | 0.0276 µg/mL |
| B6 | no binding (tested: 10 µg/mL) | no binding (tested: 10 µg/mL) | 3.35 | 0.138 | 0.149 | 4.45 nM | 0.0011 s⁻¹ | 247000 M⁻¹ s⁻¹ | 0.236 µg/mL | 0.0235 µg/mL |
| B7 | no binding (tested: 10 µg/mL) | no binding (tested: 10 µg/mL) | 3.34 | 0.118 | 0.096 | 4.5 nM | 0.00152 s⁻¹ | 337000 M⁻¹ s⁻¹ | 0.132 µg/mL | 0.0156 µg/mL |
| B8 | no binding (tested: 10 µg/mL) | no binding (tested: 10 µg/mL) | 3.27 | 0.098 | 0.106 | 2.82 nM | 0.000662 s⁻¹ | 235000 M⁻¹ s⁻¹ | 0.292 µg/mL | 0.0128 µg/mL |
